Results as given in PMC3655262.
Read-outs that look alike come from different tables or passages of the source.

T1: hZFP57zf3-4E273A (Homo sapiens, UniProt Q9NU63-3 227-287, C232F;E273A)
T1 sequence: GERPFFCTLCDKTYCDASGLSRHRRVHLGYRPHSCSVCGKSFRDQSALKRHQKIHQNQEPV

T2: hZFP57zf1-4 (Homo sapiens, UniProt Q9NU63-3 172-287)
T2 sequence: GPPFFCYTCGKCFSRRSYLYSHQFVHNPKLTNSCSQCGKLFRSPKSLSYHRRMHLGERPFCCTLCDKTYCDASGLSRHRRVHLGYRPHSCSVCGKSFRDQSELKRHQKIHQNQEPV

T3: hZFP57zf3-4 (C232F) (Homo sapiens, UniProt Q9NU63-3 227-287, C232F)
T3 sequence: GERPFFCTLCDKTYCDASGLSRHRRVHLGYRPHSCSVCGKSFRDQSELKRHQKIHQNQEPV

B1: TGCmetCGC probe (both strands methylated) (dsDNA)
DNA 1: GTAATATTGCCGCAGTAATA
DNA 2: TATTACTGCGGCAATATTAC
modifications: 5-methylcytosine at C11 of strand 1 and C9 of strand 2
B2: TGCCGC unmethylated probe (dsDNA)
DNA 1: GTAATATTGCCGCAGTAATA
DNA 2: TATTACTGCGGCAATATTAC

Legend:
Experiment in all cases: EMSA
[1] = target: T1, hZFP57zf3-4E273A
[2] = target: T2, hZFP57zf1-4
[3] = target: T3, hZFP57zf3-4 (C232F)
[4] = target: T1, hZFP57zf3-4E273A; remark: listed apart in the source

Binder	binding result [1]	binding result [2]	binding result [3]	binding result [4]
B1	binds	binds	binds	
B2				binds
